Data published in US11965039B2, “Compstatin analogues and their medical uses” (priority 2018, dated 2024).
Starred links: 1 amine or outer side, 2 acyl side, 3 side chain; linkers in the order of their positions; H or OH if unused. Positions of bridges follow the written chain, without caps; N, C: chain ends. Non-standard residues stand in square brackets, D forms with d. Groups on a side chain read outwards from the residue. *: point of attachment. X1 = K(γGlu-G-γGlu-17-carboxy-heptadecanoyl), O=C(O)CCCCCCCCCCCCCCCCC(=O)N[C@@H](CCC(=O)NCC(=O)N[C@@H](CCC(=O)NCCCC[C@H](N[*:1])C(=O)[*:2])C(=O)O)C(=O)O; Trp(1-Me) = Cn1cc(C[C@H](N)C(=O)O)c2ccccc21; C18 diacid = O=C(O)CCCCCCCCCCCCCCCCC(=O)*; C16 diacid = O=C(O)CCCCCCCCCCCCCCC(=O)*; γGlu = O=C(O)[C@H](CCC(=O)[*:2])N[*:1]; Sar = CNCC(=O)O

B1: Compound 136 (peptide)
peptide: Ac-SEFCI[Trp(1-Me)]QDWGEHRCTEGE-{8‑aminooctanoyl-X1-NH2}
modifications: disulfide 4-14
B2: Compound 131 (peptide)
peptide: Ac-SEFCI[Trp(1-Me)]QDWGEHRCTEGEGGGK([γGlu-Gly-γGlu-C16 diacid])-NH2
modifications: disulfide 4-14
SMILES: CC[C@H](C)[C@@H]1NC(=O)[C@@H](NC(=O)[C@H](Cc2ccccc2)NC(=O)[C@H](CCC(=O)O)NC(=O)[C@H](CO)NC(C)=O)CSSC[C@@H](C(=O)N[C@H](C(=O)N[C@@H](CCC(=O)O)C(=O)NCC(=O)N[C@@H](CCC(=O)O)C(=O)NCC(=O)NCC(=O)NCC(=O)N[C@@H](CCCCNC(=O)CC[C@H](NC(=O)CNC(=O)CC[C@H](NC(=O)CCCCCCCCCCCCCCC(=O)O)C(=O)O)C(=O)O)C(N)=O)[C@@H](C)O)NC(=O)[C@H](CCCNC(=N)N)NC(=O)[C@H](Cc2c[nH]cn2)NC(=O)[C@H](CCC(=O)O)NC(=O)CNC(=O)[C@H](Cc2c[nH]c3ccccc23)NC(=O)[C@H](CC(=O)O)NC(=O)[C@H](CCC(N)=O)NC(=O)[C@H](Cc2cn(C)c3ccccc23)NC1=O
B3: Compound 132 (peptide)
peptide: Ac-SEFCI[Trp(1-Me)]QDWGEHRC[Sar]EK[γGlu]GGGK([γGlu-Gly-γGlu-C18 diacid])-NH2
modifications: disulfide 4-14
SMILES: CC[C@H](C)[C@@H]1NC(=O)[C@@H](NC(=O)[C@H](Cc2ccccc2)NC(=O)[C@H](CCC(=O)O)NC(=O)[C@H](CO)NC(C)=O)CSSC[C@@H](C(=O)N(C)CC(=O)N[C@@H](CCC(=O)O)C(=O)N[C@@H](CCCCN)C(=O)N[C@@H](CCC(=O)NCC(=O)NCC(=O)NCC(=O)N[C@@H](CCCCNC(=O)CC[C@H](NC(=O)CNC(=O)CC[C@H](NC(=O)CCCCCCCCCCCCCCCCC(=O)O)C(=O)O)C(=O)O)C(N)=O)C(=O)O)NC(=O)[C@H](CCCNC(=N)N)NC(=O)[C@H](Cc2c[nH]cn2)NC(=O)[C@H](CCC(=O)O)NC(=O)CNC(=O)[C@H](Cc2c[nH]c3ccccc23)NC(=O)[C@H](CC(=O)O)NC(=O)[C@H](CCC(N)=O)NC(=O)[C@H](Cc2cn(C)c3ccccc23)NC1=O
B4: Compound 7 (peptide)
peptide: Ac-ICIWQKWGEHRCT-NH2
modifications: disulfide 2-12
SMILES: CC[C@H](C)[C@H](NC(C)=O)C(=O)N[C@H]1CSSC[C@@H](C(=O)N[C@H](C(N)=O)[C@@H](C)O)NC(=O)[C@H](CCCNC(=N)N)NC(=O)[C@H](Cc2c[nH]cn2)NC(=O)[C@H](CCC(=O)O)NC(=O)CNC(=O)[C@H](Cc2c[nH]c3ccccc23)NC(=O)[C@H](CCCCN)NC(=O)[C@H](CCC(N)=O)NC(=O)[C@H](Cc2c[nH]c3ccccc23)NC(=O)[C@H]([C@@H](C)CC)NC1=O
B5: Compound 133 (peptide)
peptide: Ac-SEFCI[Trp(1-Me)]QDWGEHRCTEK[γGlu]GGGK([γGlu-Gly-γGlu-C18 diacid])-NH2
modifications: disulfide 4-14
SMILES: CC[C@H](C)[C@@H]1NC(=O)[C@@H](NC(=O)[C@H](Cc2ccccc2)NC(=O)[C@H](CCC(=O)O)NC(=O)[C@H](CO)NC(C)=O)CSSC[C@@H](C(=O)N[C@H](C(=O)N[C@@H](CCC(=O)O)C(=O)N[C@@H](CCCCN)C(=O)N[C@@H](CCC(=O)NCC(=O)NCC(=O)NCC(=O)N[C@@H](CCCCNC(=O)CC[C@H](NC(=O)CNC(=O)CC[C@H](NC(=O)CCCCCCCCCCCCCCCCC(=O)O)C(=O)O)C(=O)O)C(N)=O)C(=O)O)[C@@H](C)O)NC(=O)[C@H](CCCNC(=N)N)NC(=O)[C@H](Cc2c[nH]cn2)NC(=O)[C@H](CCC(=O)O)NC(=O)CNC(=O)[C@H](Cc2c[nH]c3ccccc23)NC(=O)[C@H](CC(=O)O)NC(=O)[C@H](CCC(N)=O)NC(=O)[C@H](Cc2cn(C)c3ccccc23)NC1=O
B6: Compound 135 (peptide)
peptide: Ac-SEFCI[Trp(1-Me)]QDWGEHRCTGAESK([γGlu-Gly-γGlu-15‑carboxy‑hexadecanoyl])-NH2
modifications: disulfide 4-14
B7: Compound 137 (peptide)
peptide: Ac-SEFCI[Trp(1-Me)]QDWGEHRCTEGE-{8‑aminooctanoyl-Glu-X1-NH2}
modifications: disulfide 4-14
B8: Compound 134 (peptide)
peptide: Ac-EFCI[Trp(1-Me)]QDWGEHRCEGEK([γGlu-Gly-γGlu-C18 diacid])-NH2
modifications: disulfide 3-13
SMILES: CC[C@H](C)[C@@H]1NC(=O)[C@@H](NC(=O)[C@H](Cc2ccccc2)NC(=O)[C@H](CCC(=O)O)NC(C)=O)CSSC[C@@H](C(=O)N[C@@H](CCC(=O)O)C(=O)NCC(=O)N[C@@H](CCC(=O)O)C(=O)N[C@@H](CCCCNC(=O)CC[C@H](NC(=O)CNC(=O)CC[C@H](NC(=O)CCCCCCCCCCCCCCCCC(=O)O)C(=O)O)C(=O)O)C(N)=O)NC(=O)[C@H](CCCNC(=N)N)NC(=O)[C@H](Cc2c[nH]cn2)NC(=O)[C@H](CCC(=O)O)NC(=O)CNC(=O)[C@H](Cc2c[nH]c3ccccc23)NC(=O)[C@H](CC(=O)O)NC(=O)[C@H](CCC(N)=O)NC(=O)[C@H](Cc2cn(C)c3ccccc23)NC1=O
B9: Compound 8 (peptide)
peptide: Ac-ICIWQKWGAHRCTGAES-NH2
modifications: disulfide 2-12
SMILES: CC[C@H](C)[C@H](NC(C)=O)C(=O)N[C@H]1CSSC[C@@H](C(=O)N[C@H](C(=O)NCC(=O)N[C@@H](C)C(=O)N[C@@H](CCC(=O)O)C(=O)N[C@@H](CO)C(N)=O)[C@@H](C)O)NC(=O)[C@H](CCCNC(=N)N)NC(=O)[C@H](Cc2c[nH]cn2)NC(=O)[C@H](C)NC(=O)CNC(=O)[C@H](Cc2c[nH]c3ccccc23)NC(=O)[C@H](CCCCN)NC(=O)[C@H](CCC(N)=O)NC(=O)[C@H](Cc2c[nH]c3ccccc23)NC(=O)[C@H]([C@@H](C)CC)NC1=O
B10: Compound 129 (peptide)
peptide: Ac-SEFCI[Trp(1-Me)]QDWGEHRC[Sar]EGEGGGK([γGlu-Gly-γGlu-C18 diacid])-NH2
modifications: disulfide 4-14
SMILES: CC[C@H](C)[C@@H]1NC(=O)[C@@H](NC(=O)[C@H](Cc2ccccc2)NC(=O)[C@H](CCC(=O)O)NC(=O)[C@H](CO)NC(C)=O)CSSC[C@@H](C(=O)N(C)CC(=O)N[C@@H](CCC(=O)O)C(=O)NCC(=O)N[C@@H](CCC(=O)O)C(=O)NCC(=O)NCC(=O)NCC(=O)N[C@@H](CCCCNC(=O)CC[C@H](NC(=O)CNC(=O)CC[C@H](NC(=O)CCCCCCCCCCCCCCCCC(=O)O)C(=O)O)C(=O)O)C(N)=O)NC(=O)[C@H](CCCNC(=N)N)NC(=O)[C@H](Cc2c[nH]cn2)NC(=O)[C@H](CCC(=O)O)NC(=O)CNC(=O)[C@H](Cc2c[nH]c3ccccc23)NC(=O)[C@H](CC(=O)O)NC(=O)[C@H](CCC(N)=O)NC(=O)[C@H](Cc2cn(C)c3ccccc23)NC1=O

biological target: Human C3 (Complement tech cat #A113c) (human, UniProt P01024 23-1663); assay: cell-based or functional assay
Sequence (P01024 23-1663 limits assumed): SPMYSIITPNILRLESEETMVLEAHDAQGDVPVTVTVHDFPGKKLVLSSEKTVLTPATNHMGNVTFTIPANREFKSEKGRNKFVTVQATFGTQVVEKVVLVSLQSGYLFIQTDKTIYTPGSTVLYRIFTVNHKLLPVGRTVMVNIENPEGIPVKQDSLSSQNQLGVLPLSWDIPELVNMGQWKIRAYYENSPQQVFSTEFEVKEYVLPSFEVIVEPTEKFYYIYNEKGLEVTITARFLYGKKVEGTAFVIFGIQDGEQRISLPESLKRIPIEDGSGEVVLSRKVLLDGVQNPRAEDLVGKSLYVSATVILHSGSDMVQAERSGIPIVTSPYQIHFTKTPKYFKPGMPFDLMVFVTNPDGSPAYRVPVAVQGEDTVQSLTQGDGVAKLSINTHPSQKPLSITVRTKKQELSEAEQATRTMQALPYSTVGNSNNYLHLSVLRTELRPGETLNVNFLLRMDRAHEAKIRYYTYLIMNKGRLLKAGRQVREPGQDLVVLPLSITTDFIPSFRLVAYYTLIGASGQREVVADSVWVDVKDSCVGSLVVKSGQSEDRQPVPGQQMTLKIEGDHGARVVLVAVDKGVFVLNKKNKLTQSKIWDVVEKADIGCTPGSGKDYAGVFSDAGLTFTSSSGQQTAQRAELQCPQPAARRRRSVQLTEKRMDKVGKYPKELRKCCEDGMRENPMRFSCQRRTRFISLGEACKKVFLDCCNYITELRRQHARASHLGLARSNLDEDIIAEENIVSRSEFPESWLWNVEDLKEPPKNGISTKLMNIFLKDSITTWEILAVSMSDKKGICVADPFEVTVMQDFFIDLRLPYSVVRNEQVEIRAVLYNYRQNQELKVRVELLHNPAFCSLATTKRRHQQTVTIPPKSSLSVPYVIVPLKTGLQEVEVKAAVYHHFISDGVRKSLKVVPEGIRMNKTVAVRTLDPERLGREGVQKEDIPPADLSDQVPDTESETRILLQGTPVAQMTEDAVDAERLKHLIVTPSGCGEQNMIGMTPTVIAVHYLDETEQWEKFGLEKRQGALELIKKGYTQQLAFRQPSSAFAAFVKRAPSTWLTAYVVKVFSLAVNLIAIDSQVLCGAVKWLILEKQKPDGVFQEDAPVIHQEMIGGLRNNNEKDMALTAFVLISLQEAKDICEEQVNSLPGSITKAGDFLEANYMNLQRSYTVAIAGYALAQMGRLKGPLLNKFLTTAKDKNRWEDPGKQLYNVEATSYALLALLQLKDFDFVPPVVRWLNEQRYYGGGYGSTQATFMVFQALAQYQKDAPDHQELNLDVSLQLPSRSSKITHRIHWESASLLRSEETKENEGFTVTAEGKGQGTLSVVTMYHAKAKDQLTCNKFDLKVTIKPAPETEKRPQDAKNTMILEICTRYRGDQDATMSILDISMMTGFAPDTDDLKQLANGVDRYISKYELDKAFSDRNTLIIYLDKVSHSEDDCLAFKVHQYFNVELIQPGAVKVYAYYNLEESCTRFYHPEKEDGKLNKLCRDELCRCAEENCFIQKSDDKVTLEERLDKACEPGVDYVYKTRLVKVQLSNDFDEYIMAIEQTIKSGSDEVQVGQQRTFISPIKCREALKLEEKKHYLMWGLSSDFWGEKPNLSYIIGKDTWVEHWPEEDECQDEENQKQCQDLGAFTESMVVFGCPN

Row | Binder | inhibition of hemolysis IC50 [nM]
1 | B1 | < 100
2 | B2 | < 100
3 | B3 | < 100
4 | B4 | < 1000
5 | B5 | < 100
6 | B6 | < 100
7 | B7 | < 100
8 | B8 | < 100
9 | B9 | < 500
10 | B10 | < 100
